According to patent publication US20240101647A1 (VIB VZW, published 2024):

Legend:
[1] = molecular target: T1, monomeric human Fc-fused SARS-CoV-2_RBD-SD1 (SARS-CoV-2, UniProt P0DTC2 319-591)
[2] = molecular target: T1, monomeric human Fc-fused …; assay: ELISA with periplasmic extract, RBD captured by VHH72-Fc

B1: VHH3.183 (VHH)
VHH: QVQLQESGGGLVQPGGSLRLSCAASGLDYYAIGWFRQAPGKEREGLSRIESSDGSTYYADSVKGRFTISRDNTKNTVYLQMNSLKPEDTAVYYCATDPIIQGSSWYWTSWGQGTQVTVSS
Which koff [1] does the source give for B1 here?
The koff was 0.0014 s⁻¹.

B2: VHH3.89 (VHH)
VHH: QVQLQESGGGLVQPGGSLRLSCAASGFTLDYYAIGWFREVPGKEREGLSRIDSSDGSTYYADSVKGRFTISRDNTKNIVYLQMNNLKPEDTAVYYCATDPIIQGRNWYWTGWGQGTQVTVSS
Which Kd [1] does the source give for B2 here?
Its Kd is 0.292 nM.

B3: VHH3.94 (VHH)
VHH: QVQLQESGGGLVQPGGSLRLSCAASGKAVSISDMGWYRQPPGKQRELVATITKSGSTNYANSAQGRFTISRDNAKSAVYLEMNSLKPEDTAVYYCNAWLPYGMGPDYYGMELWGEGTQVTVSS
Does B3 bind [2]?
Result: binds
